Two molecules from US20230391862A1, “METHOD OF S[…] RESPONSE TO VECTOR-DELIVERED T[…]” (Scout Bio, Inc., priority 2020, published 2023) can be followed below.

Series [1] is described as follows: Serum level of feNGF mAb in cats by NGF-binding ELISA. It counts as in vivo, cat. The protocol: The concentration of FeNGF mAb in cat serum was determined using an NGF-binding ELISA. ELISA plates were coated with 0.1 μg/ml muNGF and blocked with PBS/0.05% Tween 20/1% BSA. muNGF coated wells were incubated for 1 h at room temperature with serum diluted in PBS/0.05% Tween 20/1% BSA in the amount of 100 μl/well. FeNGF antibody concentrations ranging from 1.56 ng/ml to 100 ng/ml were used to establish a binding curve. Well plates were washed following incubation and were then incubated with a 1/10,000 dilution of goat anti-feline IgG-HRP in PBS/0.05% Tween 20/1% BSA. Plates were washed with PBS/0.05% Tween 20 and developed by the addition of 3,3′,5,5′-tetramethylbenzidine (TMB) substrate. Development was stopped by the addition of 2M H2SO4 and the absorbance read at 450 nm and background was subtracted from the resulting reading.
The concentration of feline anti-NGF mAb in cat serum was determined using an NGF-binding ELISA. […] Development was stopped by the addition of 2M H2SO4 and absorbance read at 450 nm and background was subtracted.
The concentration of feline anti-NGF mAbs in cat serum was determined using an NGF-binding ELISA. […] Development was stopped by the addition of 2M H2SO4 and absorbance read at 450 nm and background was subtracted.
In general terms: ELISA stands for enzyme-linked immunosorbent assay.

In series [2] the test system is anti-transgene product antibody (ATPA) response, anti-(anti-feNGF mAb) antibodies. The experiment in a line: Bridging immunoassay for anti-transgene product antibodies (ATPA) in cat serum after IM AAV. As to conditions: cats; for ATPA up to 98 days post AAV administration: mAb 2 mg/kg SC 14 days before AAV IM 2.5×10^11 gc/kg.
Protocol: A bridging Immunoassay with acid dissociation was used to evaluate the presence of anti-(anti-feNGF mAb) antibodies in the cat serum. Samples were pre-treated with acid to disrupt any existing ATPA-feNGF mAb complexes before assessment in the bridging assay. Samples were diluted to 2.5% in 300 mM acetic acid to enable ATPA-feNGF mAb complex dissociation before analysis. Acidified samples were incubated for 40 min with shaking at ambient temperature. 25 μl of the acidified samples were transferred to wells of a 96 well plate containing 90 μL of master-mix reagent (0.125 μg/mL of biotinylated feNGF mAb and 0.125 μg/mL of ruthenylated feNGF mAb with 1% Meso Scale Discovery (MSD) Blocker A in PBS-T) and 11 μL 1.2M Tris solution (pH 9.5). Acidified samples plus master-mix reagents were incubated at ambient temperature in the dark for 60 min with shaking. Simultaneously, Streptavidin-coated MSD plates were blocked for 60 min at ambient temperature with 200 μL/well of PBS-T buffer containing 3% (MSD) Blocker A. The Streptavidin-coated MSD plates were then washed and 25 μl of the acidified sample plus master-mix reagent were transferred to the plates which were then incubated at ambient temperature in the dark for 60-90 min with shaking. The MSD plates were washed and then 150 μL of 2×MSD Read T-Buffer was added per well before the plates were read on an MSD MESO QuickPlex SQ 120 instrument. The resulting response was recorded as Relative Light Units (RLU).
A bridging immunoassay with acid dissociation was used to evaluate the presence of anti-(anti-feNGF mAb) antibodies in the cat serum at timepoints when the circulating levels of drug were at the lowest (pre-dose). Samples were pre-treated with acid to disrupt any existing ADA-feNGF mAb complexes before assessment in the bridging assay. Briefly, samples were diluted to 2.5% in 300 mM acetic acid to enable ADA-drug complex dissociation before analysis. Acidified samples were incubated for 40 min with shaking at ambient temperature. 25 μl of the acidified samples were transferred to wells of a 96 well plate containing 90 μL of master-mix reagent (0.125 μg/mL of biotinylated feNGF mAb and 0.125 μg/mL of ruthenylated feNGF mAb with 1% Meso Scale Discovery (MSD) Blocker A in PBS-T) and 11 μL 1.2M Tris solution (pH 9.5). Acidified samples plus master-mix reagents were incubated at ambient temperature in the dark for 60 min with shaking. Simultaneously, Streptavidin-coated MSD plates were blocked for 60 min at ambient temperature with 200 μL/well of PBS-T buffer containing 3% (MSD) Blocker A.
The Streptavidin-coated MSD plates were then washed and 25 ul of the acidified sample plus master-mix reagent were transferred to the plates which were then incubated at ambient temperature in the dark for 60-90 min with shaking. The MSD plates were washed, 150 μL of 2×MSD Read T-Buffer was added per well before the plates were read on an MSD MESO QuickPlex SQ 120 instrument. The resulting response was recorded as Relative Light Units (RLU).
A bridging immunoassay with acid dissociation was used to evaluate the presence of anti-(anti-feNGF mAb) antibodies in the cat serum at timepoints when the circulating levels of drug were at the lowest (pre-dose). Samples were pre-treated with acid to disrupt any existing ADA-feNGF mAb complexes before assessment in the bridging assay. Briefly, samples were diluted to 2.5% in 300 mM acetic acid to enable ADA-drug complex dissociation before analysis. Acidified samples were incubated for 40 min with shaking at ambient temperature.

B1: feNGF mAb: recombinant purified felinized anti-NGF monoclonal antibody, clone JCV4, SEQ ID NOs: 1 and 2 (antibody, V domains shown)
VH: QVQLMESGADLVQPSESLRLTCVASGLSLTNNNVNWVRQAPGKGLEWMGGVWAGGATDYNSALKSRLTITRDTSKNTVFLQMHSLQSEDTATYYCARDGGYSSSTLYAMDAWGQGTTVTVSA
VL: DIEMTQSPLSLSATPGETVSISCRASEDIYNALAWYLQKPGRSPRLLIYNTDTLHTGVPDRFSGSGSGTDFTLKISRVQTEDVGVYFCQHYFHYPRTFGQGTKLELK
modifications: felinized anti-NGF antibody VH Sequence; felinized anti-NGF antibody VL Sequence
For the molecule B1, the “expression of feNGF mAb in the serum” value in series [1] (mAb 2 mg/kg SC day −14, then AAV.CB7.feNGF IM 2.5×10^11 gc/kg day 0 (FIG. 4B)) is recorded as “strong, sustained expression of feNGF mAb was observed”. Also, the “ATPA up to 98 days post AAV administration” value in series [2] (Example 7) is listed as “no evidence of ATPA was observed”. In series [2] (pre-treatment, then AAV.CB7.feNGF IM 2.5×10^11 gc/kg at day 0 (FIG. 4E-4H)), the “ATPA response after pre-treatment” value is on record as “no ATPA response was observed”.

B2: fNGFV5_1 mAb: purified felinized anti-NGF monoclonal antibody, clone V5_1, SEQ ID NOs: 2 and 5 (antibody, V domains shown)
VL: DIEMTQSPLSLSATPGETVSISCRASEDIYNALAWYLQKPGRSPRLLIYNTDTLHTGVPDRFSGSGSGTDFTLKISRVQTEDVGVYFCQHYFHYPRTFGQGTKLELK
VH: QVQLVESGGDLVQPGGSLRLTCVASGFSLTNNNVNWVRQAPGKGLEWMGGVWAGGATDYNSAVKSRLTITRDTSKNTVFLQMHSLQSEDTATYYCARDGGYSSSTLYAMDAWGQGTTVTVSA
modifications: felinized anti-NGF antibody VL Sequence; felinized anti-NGF antibody (V5_1) VH Sequence
Consider B2, for which the detectable serum antibody entry in series [1] (Example 8, high dose (1×10^13 gc/cat) cohort, the animal with ATPA response) is recorded as “sudden loss in detectable serum antibody”. The “ATPA signal following the recombinant mAb administration” value in series [2] (Example 7, V5_1 pre-treatment group, did not persist, did not affect transgene expression (FIG. 10F)) is “low, transient ATPA signal was observed in one animal”. Besides, in series [2] (Example 7), the “ATPA up to 98 days post AAV administration” value is given as “no evidence of ATPA was observed”. Besides, the “treatment induced ATPA response” value in series [2] (Example 8, mAb 2 mg/kg SC day −14, then high dose of AAV (1×10^13 gc/cat)) is on record as “A single treatment induced ATPA response was observed”. Moreover, the “treatment-emergent immunogenicity up to 56 days post AAV administration” value in series [2] (Example 8, mAb 2 mg/kg SC day −14, then medium dose of AAV (1×10^12 gc/cat)) was “no evidence of treatment-emergent immunogenicity was observed”.
